Test results: US20200055913A1 (University of California, published 2020)

Experiments:
[1] = molecular target: T1, human TLR4 on human PBMC (CD14+CD11b+ monocytes) (human, UniProt O00206 24-839); experiment: competitive hRetn/LPS binding assay on human PBMC, flow cytometry
T1 construct: whole, on cells
Procedure: With reference to FIG. 5J, the functional ability of the hRetn N-peptide to block LPS binding and function was tested. The binding experiments were performed on ice to rule out effects of LPS-induced TLR4 endocytosis, which would have added complexity for interpretation of the data. Pre-incubation of human PBMC with the hRetn N-peptide or full-length hRetn inhibited LPS binding to CD14+CD11 b+ monocytes. […] An additional formulation of human resistin fused to the humanFc Ig fragment was also effective at inhibiting proinflammatory cytokines and promoting IL-10 expression in primary macrophage cultures (FIG. 7C).
Human PBMCs. Human buffy coat was purchased from Zen-bio. Buffy coat was overlaid on top of Histopaque-1077 and spun at 700g at 25° C. with no brake and PBMCs were recovered from the interphase. PBMCs were plated in 96-well plates and stimulated with mammalian-derived human resistin (1 μg/mL, LifeSpan Biosciences) or hRetn N-peptide (1 μg/mL). After 24 hours, ultrapure LPS (100 ng/mL, Invivogen) was added and supernatants recovered for ELISA at 24 hours. Where indicated, cells were incubated for 4 hours with STAT3 (5, 15-DPP, 50 μM) or TBK1 (BX-795, 1 μM) inhibitors prior to hRetn treatment. For the hRetn competitive binding assay, 1×10^6 cells were incubated with recombinant hRetn (0.5 μg), washed in PBS then incubated with 0.5 μg LPS-biotin (incubations were 30 minutes on ice). […]

[2] = molecular target: T2, his-human CAP1 (cyclic adenylate associated protein 1) (human, UniProt Q01518 1-475, limits assumed); experiment: pull-down on nickel-NTA agarose beads, anti-hRetn Western blot
T2 construct: Proposed receptor of hRetn, tested in the pull-down; also called his-CAP1; His-CAP1; not shown: His tag
Procedure: (§1) Given that there are no publicly available CAP1 deficient mice, a direct protein-protein interaction of hRetn to TLR4 or CAP1 was investigated as an alternative to cell binding assays. A pull-down assay was performed utilizing recombinant hRetn with histidine (his)-tagged human TLR4, his-human CAP1 or his-maltose binding protein (MBP) as a negative control (FIG. 4G). In the pull-down elution, Western blot using anti-his antibody confirmed that his-MBP, his-TLR4 and his-CAP1 are all pulled down by the nickel-NTA agarose beads. In addition, when blotting the elution fraction with anti-hRetn antibody, hRetn was only present in the elution with his-TLR4, not his-CAP1 or his-MBP. To ensure that this interaction was not due to low-level LPS contamination, this pull-down assay was also performed with mammalian cell-derived hRetn. Similar to E. coli-derived hRetn, mammalian-derived hRetn is only detected when pulled down with his-TLR4, not his-CAP1 or his-MBP.
(§2) Pull-down Assay. […] His-MBP, His-TLR4 and His-CAP1 were detected by anti-His antibody (Abcam), and hRetn was detected by anti-hRetn antibody (donated by Mitchell Lazar) by Western Blot. […]

[3] = molecular target: his-maltose binding protein (MBP) (UniProt P0AEX9 27-396 = MBP); experiment: as above
Procedure: as §1, §2

T1 sequence (O00206 24-839): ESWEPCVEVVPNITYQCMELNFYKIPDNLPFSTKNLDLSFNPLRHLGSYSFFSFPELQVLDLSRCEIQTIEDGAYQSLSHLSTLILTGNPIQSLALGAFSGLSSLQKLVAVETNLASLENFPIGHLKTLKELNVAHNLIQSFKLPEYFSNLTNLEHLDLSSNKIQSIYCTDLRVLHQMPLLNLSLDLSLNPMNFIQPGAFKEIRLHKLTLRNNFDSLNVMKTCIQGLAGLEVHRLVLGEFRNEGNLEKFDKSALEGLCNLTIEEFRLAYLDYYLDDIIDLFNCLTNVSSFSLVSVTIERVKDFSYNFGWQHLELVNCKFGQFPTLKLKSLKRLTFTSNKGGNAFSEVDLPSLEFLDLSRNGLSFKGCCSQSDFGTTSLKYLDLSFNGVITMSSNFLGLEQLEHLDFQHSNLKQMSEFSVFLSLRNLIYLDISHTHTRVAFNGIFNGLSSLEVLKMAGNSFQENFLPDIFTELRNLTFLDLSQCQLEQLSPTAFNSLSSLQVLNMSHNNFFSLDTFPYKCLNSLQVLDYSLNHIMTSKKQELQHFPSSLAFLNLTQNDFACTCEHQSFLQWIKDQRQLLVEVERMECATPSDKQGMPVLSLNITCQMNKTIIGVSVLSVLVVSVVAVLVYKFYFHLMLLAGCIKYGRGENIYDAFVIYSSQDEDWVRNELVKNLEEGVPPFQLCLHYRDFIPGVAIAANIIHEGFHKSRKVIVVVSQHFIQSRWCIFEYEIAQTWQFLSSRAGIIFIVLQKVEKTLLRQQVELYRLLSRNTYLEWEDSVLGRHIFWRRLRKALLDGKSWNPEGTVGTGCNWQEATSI
T2 sequence (Q01518 whole entry): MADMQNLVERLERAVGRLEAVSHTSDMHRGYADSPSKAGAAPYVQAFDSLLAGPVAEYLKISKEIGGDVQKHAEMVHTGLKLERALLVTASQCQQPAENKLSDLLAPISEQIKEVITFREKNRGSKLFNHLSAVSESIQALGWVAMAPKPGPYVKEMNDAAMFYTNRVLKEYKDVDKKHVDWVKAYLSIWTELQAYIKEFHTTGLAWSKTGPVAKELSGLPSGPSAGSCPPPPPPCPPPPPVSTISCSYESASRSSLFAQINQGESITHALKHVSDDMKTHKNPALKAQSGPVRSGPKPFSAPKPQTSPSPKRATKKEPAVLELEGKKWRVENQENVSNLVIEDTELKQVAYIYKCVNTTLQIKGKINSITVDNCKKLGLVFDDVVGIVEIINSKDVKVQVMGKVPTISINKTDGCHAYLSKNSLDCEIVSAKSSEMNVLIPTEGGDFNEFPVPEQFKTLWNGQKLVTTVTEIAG

Row | binding result [1] | binding result [2] | binding result [3] | Binder
1 | binds |  |  | mammalian cell-derived human resistin (hRetn), 293T cell-derived (LifeSpan Biosciences) (ligand, Bought protein (LifeSpan Biosciences); also called mammalian-derived hRetn; 293T derived hRetn) KTLCSMEEAINERIQEVAGSLIFRAISSIGLECQSVTSRGDLATCPRGFAVTGCTCGSACGSWDVRAETTCHCQCAGMDWTGARCCRVQP
2 |  | no binding | no binding | recombinant human resistin (hRetn), E. coli-derived (Peprotech) (ligand, Bought protein (Peprotech), made in bacteria; also called recombinant hResistin; E. coli-derived hRetn) SSKTLCSMEEAINERIQEVAGSLIFRAISSIGLECQSVTSRGDLATCPRGFAVTGCTCGSACGSWDVRAETTCHCQCAGMDWTGARCCRVQP
